Test results taken from the supplement of paper PMC9170038.

System: MS2 coat protein
Assay: apparent KD of MS2 coat protein; designed switch direction (-1 OFF switch, 1 ON switch): -1; higher = weaker reporter binding
In short: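 Apparent KD, taken as the median over clusters for each design, was obtained by curve-fitting normalised cluster fluorescence. Designed RNA switches had been transcribed on Illumina chips by stalled E. coli RNA polymerase and titrated with SNAP-549-labelled MS2 coat protein, doubling from 0.7 or 1.5 nM to 3 µM.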

[1] = input ligand: microRNA oligo, concentration not stated
[2] = Eterna round: R95, input ligand: FMN 200 uM
[3] = Eterna round: R95, input ligand: microRNA oligo, concentration not stated
[4] = Eterna round: R95, input ligand: none

Sequence | apparent KD of MS2 coat protein (input ligand: FMN 200 uM) [nM] | apparent KD of MS2 coat protein [1] [nM] | apparent KD of MS2 coat protein (input ligand: none) [nM] | apparent KD of MS2 coat protein [2] [nM] | apparent KD of MS2 coat protein [3] [nM] | apparent KD of MS2 coat protein [4] [nM]
UGAGGACAUGAGGAUCACCCAUGUAAGGAUAUGCGGAGAGUUUGGAGAGGUUGAGGAGGCAGAAGGUACGGGAU [JR_Exclu1_Sub046] (Eterna round: R96, puzzle: Exclusion 1) | 144 | 47.4 | 103 |  |  | 
GCUGCAAAUGUAGGAUAUCUGCACGUUUAGUGCAGAGAAGGACAUGAGGAUCACCCAUGUAGAUCAGCAGCAAUUAAUUUAAUU [ENG1/5-A2] (Eterna round: R96, puzzle: Exclusion NG 1) | 480 | 40.8 | 45.2 |  |  | 
CUGAGGUAGCGGUCCUAUGACAUGAGGAUCACCCAUGUACCUUGCUAUAAGCUUUUUGCUCGUCUUAUGAUUCUCGG [JL Atriat mod 7] (puzzle: Sensor v3, turn-off variant 1) |  |  |  | 246 | 713 | 302
GAGAACUGAGGAUAUACAUGAGGAUCACCCAUGUUAAGAAGAUAGUAUUGAUGGUUCUGUAGAAGGCAGAGAGA [JR_Ex3_Sub066] (Eterna round: R97, puzzle: Exclusion 3) | 34.5 |  | 30.8 |  |  | 
GAAGAUCGAGUUAGGAUAUGAUUACUAUCCGAAAAUCAGAAGGAACUUGAGGAUCACCCAAGUUUAGAAGAAAU [JR_BMEx4_Sub052] (Eterna round: R97, puzzle: Brourd's mod of Exclusion 4) | 18.2 |  | 14.7 |  |  | 
CGCUCACAUGAGGAUCACCCAUGUCAGGAUAUCUCAGUGCAUCCACACGGACGCAUCAAGAGAAGGGACAAAAC [Vinxlusion 3 - Jieux - Exclusion 1] (Eterna round: R97, puzzle: Exclusion 1) | 189 |  | 112 |  |  | 
ACUAUCAGAUUCUUAGGGUACAUGAGGAUCACCCAUGUGUACGUCUACGAGGGUUCGAAAAUCAAGCUCCGCUCGUC [Eternabot (L2) Solution 19] (Eterna round: R97, puzzle: Sensor, turn-off variant 1) | 99.2 |  | 91.8 |  |  | 
AAAACACAUGAGGAUCACCCAUGUGAGGAUAUGCUAUGGAAAAUAAAAAUAAAACAUAGCAGAAGGCACAAAGG [Denovo 18] (Eterna round: R96, puzzle: Exclusion 1) |  | 54 |  |  |  | 
CCUUGUGUUGAGGAUAUGCGCCGGCUCGCUGGCGCAGAAGGCGGCACAUGAGGAUCACCCAUGUCAGUUCGCGG [salish99_ex6_r004_013] (Eterna round: R97, puzzle: Exclusion 6) | 426 |  | 116 |  |  | 
CAGUACAGAGGAUAUACAUGAGGAUCACCCAUGUGUUCCAGCUAGGAAACUAGCGAAUGUAGAAGGCUGUACUG [jl-ex3-4.23 salish99 mod] (Eterna round: R97, puzzle: Exclusion 3) | 166 |  | 273 |  |  | 
CUUUCUUGCAAGGAUAUGCAAUUUAUUAUUUAUGCAGAAGGUGCUACAUGAGGAUCACCCAUGUUUCUGGGUUU [JR_E6_Sub045] (puzzle: Exclusion 6) |  |  |  |  | 124 | 
AAACCUGCCCAUGACCGCAAGCUUUUCGCUUGUCUUACCACAUGAGGAUCACCCAUGUGACAUGGGCUCCUUAUAAA [Usorle] (puzzle: Sensor v3, turn-off variant 2) |  |  |  | 14 | 11.8 | 11.4
AAUCCACAUGAGGAUCACCCAUGUGAGGAUAUGAUACUAUGUACUUCGGUACAUAGUAUCAGAAGGCACAUGAA [Ex1-3: 50] (puzzle: Exclusion 1) |  |  |  | 118 | 64.2 | 71.6
GAUAGAGAGCAGGAUAUCUUAGAAAUGUAUUAUAGAGAAGGGCUCACAUGAGGAUCACCCAUGUGGUCCUAGAU [JL Dibiri mod 15] (Eterna round: R96, puzzle: Exclusion 6) | 94.3 | 14.4 | 19.6 |  |  | 
UUUUUACAUGAGGAUCACCCAUGUGAGGAUAUGGAGCGCGACCGCGCGGUCGCGUACACCAGAAGGCGCAGGAA [1st #75] (Eterna round: R97, puzzle: Exclusion 1) | 30.6 |  | 24.9 |  |  | 
AGGAUGUUAGGAUAUCGGAUAUGCUGGAGGAGGUGGAUUUACGAGAAGGAACAUGAGGAUCACCCAUGUUGGAG [JR_Exclu4_Sub047] (puzzle: Exclusion 4) |  |  |  |  | 20.9 | 
GGAUAUAAGUCAGGAUAUGAGCGCAACUGACGAUCAGAAGGGACACAUGAGGAUCACCCAUGUGAUCUAUCAAUAUUAUACAUG [Prohibition 93 - Jieux - Exclusion NG 1] (Eterna round: R96, puzzle: Exclusion NG 1) | 29.1 | 19 | 22.4 |  |  | 

Sequence | apparent KD of MS2 coat protein (input ligand: FMN 200 uM) [nM] | apparent KD of MS2 coat protein [1] [nM] | apparent KD of MS2 coat protein (input ligand: none) [nM] | apparent KD of MS2 coat protein [2] [nM] | apparent KD of MS2 coat protein [3] [nM] | apparent KD of MS2 coat protein [4] [nM]
ACCAUGUAAGGAUAUCUCGUACAAAGACGCAACUCGUCCAGAGAGAAGGUACAUGAGGAUCACCCAUGUAGACA [Eternabot (Original) Solution 39] (Eterna round: R97, puzzle: Exclusion 4) | 152 |  | 33.5 |  |  | 
UGAUGACAUGAGGAUCACCCAUGUCAGGAUAUUGAGCUUGAGCUGAAAAGUUCGAGUUCGAGAAGGGACUGUCG [-29.6, -26.6 kcal, A 28%, 1] (Eterna round: R97, puzzle: Exclusion 1) | 28.2 |  | 29 |  |  | 
GACCUAUAGGUAGGAUAUCAUUGCGAUUAGCUAUGAGAAGGACCACAUGAGGAUCACCCAUGUCCUCUAAUUAGCCAUUUGGUC [Fiskers ExNg1 - 8] (Eterna round: R96, puzzle: Exclusion NG 1) |  | 338 |  |  |  | 
GGUUGGCGAGGAUAUACAUGAGGAUCACCCAUGUGAGAGAAAAAAGUGAGGAAGAAACGUAGAAGGCGCUGACG [salish99_ex3_r3_037] (puzzle: Exclusion 3) |  |  |  | 42.6 | 34.2 | 45.2
GUGGGUCCUCACGGUGCUACAUGAGGAUCACCCAUGUGGAUUGAGGAUAUCGUAACCCGACGGGACGAGAAGGCAGUUUACUGU [Ex NG3 #99] (Eterna round: R96, puzzle: Exclusion NG 3) | 66.2 | 14.8 | 27.2 |  |  | 
GUGGUCCGAGGAUAUAUUAUGUGAUACAUGAGGAUCACCCAUGUUAUAUGAUGGAUGUUAGUAGAAGGCGGACUAC [Mat - Exclusion 5 - JL mod - D82] (puzzle: Exclusion 5) |  |  |  | 95.2 | 86.2 | 96.4
CAUGAUUGGGAAGGAUAUUGACCUAGUUAGCGCCGAGAAGGUCCCUGUCACAUGAGGAUCACCCAUGUGAAUCUGGUGAAAGAG [Ex NG1 #93] (Eterna round: R96, puzzle: Exclusion NG 1) | 26.1 | 16.6 | 22.9 |  |  | 
GCGCACCUACCAAAAGGUAGGUCAACAUGAGGAUCACCCAUGUAGGAUAUCGAUUGCUUUGCAGUCGAGAAGGACGUGAUGCGC [JL ENG3 3.80 Mod 15] (Eterna round: R96, puzzle: Exclusion NG 3) | 38 | 24.5 | 34.3 |  |  | 
ACAUGUAAUGUAGGAUAUUUUACACAUGAGGAUCACCCAUGUGACCAGAGGCUUUGCUAUGAGUAAAAGAAGGGUAUGUACAUG [Ex NG2 #59] (Eterna round: R96, puzzle: Exclusion NG 2) |  | 51.5 |  |  |  | 
AAUUUACAUGAGGAUCACCCAUGUGAGGAUAUGAUACUAUGUACUUCGGUACAUAGUAUCAGAAGGCAUGUGAA [Ex1-3: 92] (puzzle: Exclusion 1) |  |  |  |  | 133 | 
GCAGGUUAAGUCAGGAUAUACCUAUGGAUACAUAGGUAGAAGGGACAUGAGGAUCACCCAUGUUCCUCACCUGC [Fiskers BMX 4 - 21] (puzzle: Brourd's mod of Exclusion 4) |  |  |  |  | 13.9 | 
CCAGCGAGUGUGAGGAUAUGCUGGUCCUUGGAUCAGCAGAAGGCACAUGAGGAUCACCCAUGUGAGGACGUUGG [JL bmx4 3.31] (Eterna round: R96, puzzle: Brourd's mod of Exclusion 4) | 294 | 27.9 | 31.9 |  |  | 
ACAUGUGUUGUAGGAUAUAGGACACAUGAGGAUCACCCAUGUGGUUUCAUGUCUAACCAAGCGUCCUAGAAGGACGGCAACAUG [Ex NG2 #27] (Eterna round: R96, puzzle: Exclusion NG 2) | 23.4 | 19.4 | 19.4 |  |  | 
AAUAGUAAUAAGGAUAUCACUAGCUUCGGCUAGUGAGAAGGUAUUACAUGAGGAUCACCCAUGUGGUCAAUUAA [E6/4-A1] (Eterna round: R97, puzzle: Exclusion 6) | 360 |  | 922 |  |  | 
AGUUGUUGUUUCCGUUCUUACAUGAGGAUCACCCAUGUUUCUUGUCGUGCUCGCGUUGCUCGUCAGACUACCUGUUG [salish99_TOv1_r3_064] (puzzle: Sensor v3, turn-off variant 1) |  |  |  | 87.1 | 106 | 138
CUCUUGUCAGGAUAUCUAAGCCACCUCCGGGCGGCCGAAUUAGAGAAGGGACAUGAGGAUCACCCAUGUAAAAG [Qumabi] (puzzle: Exclusion 4) |  |  |  | 30 | 138 | 174
GAUCCUUCUGUUAGGAUAUGCAACGGGCUUCCGCAGCAGAAGGAACAUGAGGAUCACCCAUGUCAAAUAAAAUC [JL-BMX4-4.36 ViennaUCT mod] (Eterna round: R97, puzzle: Brourd's mod of Exclusion 4) | 54.1 |  | 18.7 |  |  | 
